Results on one substance are retold here after US20210120790A1.

Assay [1] concerns the target Endogenous mouse SIRPα of wildtype C57BL/6 mice (mouse (C57BL/6)) (UniProt P97797). Briefly: flow cytometry; CD47 protein on peritoneal cavity cells of wildtype C57BL/6 mice, detected with human anti-CD47 antibody and AF647 anti-hIgG.
The target of assay [2] is Endogenous mouse SIRPα of wildtype BALB/c mice (mouse (BALB/c)) (UniProt P97797). Briefly: flow cytometry; CD47 protein on peritoneal cavity cells of wildtype BALB/c mice, detected with human anti-CD47 antibody and AF647 anti-hIgG.

Sequence of UniProt P97797 (P97797 32-513): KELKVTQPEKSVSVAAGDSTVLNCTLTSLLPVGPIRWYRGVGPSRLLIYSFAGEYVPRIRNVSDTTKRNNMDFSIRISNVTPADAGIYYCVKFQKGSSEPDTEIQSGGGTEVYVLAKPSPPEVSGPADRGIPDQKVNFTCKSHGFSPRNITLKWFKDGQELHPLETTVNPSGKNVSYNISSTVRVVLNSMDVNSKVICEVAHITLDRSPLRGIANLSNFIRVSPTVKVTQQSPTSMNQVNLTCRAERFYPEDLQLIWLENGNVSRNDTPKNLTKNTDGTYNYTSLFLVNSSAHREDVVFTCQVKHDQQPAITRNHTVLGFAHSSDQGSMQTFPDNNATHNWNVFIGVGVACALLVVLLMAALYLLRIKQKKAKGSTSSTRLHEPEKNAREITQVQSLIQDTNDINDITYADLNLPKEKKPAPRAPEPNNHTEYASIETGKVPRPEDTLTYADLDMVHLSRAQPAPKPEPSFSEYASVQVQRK

As for “Mouse CD47 proteins (added to peritoneal cavity cells, Example 16) (ligand)”, the geometric mean of flow cytometry signal in assay [1] and in assay [2] was 100 throughout.
